Test results from patent publication US20080260729A1 (ZENYTH OPERATIONS, published 2008).

Legend:
[1] = target: human VEGF-B (Example 10, form not stated) (human) (UniProt P49765); assay: SPR (BIAcore), immobilised human VEGF-B, Fab injected at several concentrations
[2] = target: human VEGF-B (Example 10, form not stated) (human) (UniProt P49765); assay: competition ELISA, plate bound human VEGF-B, soluble VEGF-B titrated
[3] = target: human VEGF-B (Example 10, form not stated) (human) (UniProt P49765); assay: BIAcore dissociation rate, ratio
[4] = target: human VEGF-B (Example 10, form not stated) (human) (UniProt P49765); assay: SPR (BIAcore), immobilised human VEGF-B
6×His.mVEGF-B10-108 [5] = target: T1, 6×His.mVEGF-B10-108 (murine, UniProt P49766 31-129); assay: ELISA on plate-bound 6×His.mVEGF-B10-108
T1 construct: not shown: additional 16 N-terminal amino acids with 6xHis tag and Genenase I cleavage site
T1 sequence: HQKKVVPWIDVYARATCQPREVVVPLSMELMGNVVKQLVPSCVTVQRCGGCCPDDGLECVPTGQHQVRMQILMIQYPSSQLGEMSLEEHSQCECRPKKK
Experimental: (§1) Monoclonal antibodies raised against hVEGF-B were tested for cross-reactivity with mVEGF-B using a standard ELISA format. mAbs were incubated with plate bound hVEGF-B₁₀₋₁₀₈ or 6×His.mVEGF-B₁₀₋₁₀₈ at a concentration of 1.25 μg/ml and bound mAb visualized using a HRP-conjugated secondary reagent and TMB substrate.

human VEGF-B10-108 = target: T2, human VEGF-B10-108 (human, UniProt P49765 31-129); assay: SPR (BIAcore 2000), VEGF-B10-108 amine-coupled on chip, mAb injected 125-0.98 nM
T2 construct: also called VB108
T2 sequence: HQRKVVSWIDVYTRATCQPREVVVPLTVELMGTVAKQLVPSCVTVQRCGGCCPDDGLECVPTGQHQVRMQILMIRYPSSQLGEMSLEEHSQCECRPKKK
Experimental: A Biosensor-based approach was used for kinetic analysis of mAb binding to target VEGF-B using a BIAcore™ 2000 surface plasmon resonance instrument (Biacore AB, Uppsala, Sweden). A biosensor chip was activated for covalent coupling of VEGF-B using N-ethyl-N′-(3-dimethylaminopropyl)-carbodiimide hydrochloride (EDC) and N-hydroxysuccinimide (NHS) according to the supplier's (Biacore AB, Uppsala, Sweden) instructions. A solution of 5 μg/ml VEGF-B₁₀₋₁₀₈ in 20 mM sodium acetate, pH 4.8 was prepared and an aliquot (35 μl) was injected at a flow rate of 2 μl/min to achieve approximately 500-600 response units (RU) of coupled protein. Finally, 1 M ethanolamine was injected as a blocking agent.
For kinetics measurements, two-fold serial dilutions of test antibody starting at 125n M to 0.98 nM were injected in BIAcore™ buffer (20 mM HEPES, pH 7.8, 0.15 M NaCl, 3.4 mM EDTA, 0.005% Tween-20) with 1 mg/ml bovine serum albumin (BSA) at 25° C. at a flow rate of 15 μl/min. Simultaneous analysis of association (kₐ) and dissociation (kd) rate constants using BIAevaluation™ V3.02 software (Biacore AB, Uppsala, Sweden) was used to determine the equilibrium binding constant (KD).

6×His.mVEGF-B10-108 [6] = target: T1, 6×His.mVEGF-B10-108; assay: ELISA on plate-bound antigen, HRP secondary, TMB
Experimental: as §1

Row | Binder | Relative VEGF-B binding affinity (IC50 CDR-Fab variant/IC50 murine-human chimera) [2] | Relative koff (koff CDR-Fab variant/koff murine-human chimera) [3] | Kd (human VEGF-B10-108) | koff (human VEGF-B10-108) | kon (human VEGF-B10-108) | further results
1 | 2H10 CDR-grafted human germline Fab (CDR-Fab) (Fab, V domains shown) VH: QVQLVQSGAEVKKPGASVKVSCKASGYTFTGFWIHWVRQAPGQGLEWMGHINPGNGGTNYNEKFKRRVTMTRDTSISTAYMELSRLRSDDTAVYYCARSYSNYVRAMDYWGQGTLVTVSS VL: DIQMTQSPSSLSASVGDRVTITCRASQDISNFLNWYQQKPGKAPKLLIYYTSTLHSGVPSRFSGSGSGTDFTLTISSLQPEDFATYYCQQGKTLPPTFGGGTKVEIK | 2.25 | 3.7 |  |  |  | Kd [1]: 0.66 nM
2 | CDR-Fab framework variant H73 (Fab, V domains shown) VH: QVQLVQSGAEVKKPGASVKVSCKASGYTFTGFWIHWVRQAPGQGLEWMGHINPGNGGTNYNEKFKRRVTMTRDKSISTAYMELSRLRSDDTAVYYCARSYSNYVRAMDYWGQGTLVTVSS VL: DIQMTQSPSSLSASVGDRVTITCRASQDISNFLNWYQQKPGKAPKLLIYYTSTLHSGVPSRFSGSGSGTDFTLTISSLQPEDFATYYCQQGKTLPPTFGGGTKVEIK | 1.42 | 1.4 |  |  |  | Kd [4]: 0.337 nM; fold of KD against the 2H10 murine Fab [4]: < 3 fold
3 | 2H10 murine Fab (Fab, V domains shown) VH: QVQLQQPGTELVKPGASVKLSCKASGYTFTGFWIHWVKQRPGQGLEWIGHINPGNGGTNYNEKFKRMATLTVDKSSSTAYMQLSSLTSEDSAVYYCARSYSNYVRAMDYWGQGTSVTVSS VL: EIQMTQTTSSLSASLGDRVTISCRASQDISNFLNWYQQKPDGTVKLLIYYTSTLHSGVPSRFSGSGSGTDYSLTISNLEQEDIATYFCQQGKTLPPTFGGGTKLEIK |  |  |  |  |  | Kd [1]: 0.115 nM
4 | murine monoclonal antibody 2H10 (antibody, V domains shown, Whole murine mAb from hybridoma; also called mAb 2H10) VH: QVQLQQPGTELVKPGASVKLSCKASGYTFTGFWIHWVKQRPGQGLEWIGHINPGNGGTNYNEKFKRMATLTVDKSSSTAYMQLSSLTSEDSAVYYCARSYSNYVRAMDYWGQGTSVTVSS VL: EIQMTQTTSSLSASLGDRVTISCRASQDISNFLNWYQQKPDGTVKLLIYYTSTLHSGVPSRFSGSGSGTDYSLTISNLEQEDIATYFCQQGKTLPPTFGGGTKLEIK |  |  | 0.18 nM | 6.77e-05 s⁻¹ | 385000 M⁻¹ s⁻¹ | binding result (6×His.mVEGF-B10-108 [5]): binds

The next lines start with results.

Row | Relative VEGF-B binding affinity (IC50 CDR-Fab variant/IC50 murine-human chimera) [2] | Relative koff (koff CDR-Fab variant/koff murine-human chimera) [3] | Kd (human VEGF-B10-108) | koff (human VEGF-B10-108) | kon (human VEGF-B10-108) | Binder | further results
5 | 1 | 1 |  |  |  | mouse-human chimeric Fab (2H10) (Fab, V domains shown) VH: QVQLQQPGTELVKPGASVKLSCKASGYTFTGFWIHWVKQRPGQGLEWIGHINPGNGGTNYNEKFKRMATLTVDKSSSTAYMQLSSLTSEDSAVYYCARSYSNYVRAMDYWGQGTSVTVSS VL: EIQMTQTTSSLSASLGDRVTISCRASQDISNFLNWYQQKPDGTVKLLIYYTSTLHSGVPSRFSGSGSGTDYSLTISNLEQEDIATYFCQQGKTLPPTFGGGTKLEIK | 
6 |  |  | 2.82 nM | 0.000153 s⁻¹ | 54500 M⁻¹ s⁻¹ | murine monoclonal antibody 1C6 (antibody, V domains shown, Whole murine mAb from hybridoma; also called mAb 1C6) VH: QVQLQQSGPELVKPGASVRISCKASGYTFTTFYIHWVKQRPGQGLEWIAWFYPGNVNTNYNEKFKDKATLTADKSSSAAYLQLNSLTSEDSAVYFCTRSPYYGYVFDFWGQGTTLTVSS VL: DIVMTQSHKFMSTSVGDRVSITCKASQDVGSAVAWYQQKPGQSPKLLIYWASTRHTGVPDRFTGSGSGTDFTFTISNVQSEDLADYFCQQYSSSLTFGAGATKLEL | binding result (6×His.mVEGF-B10-108 [5]): binds
7 |  |  | 2.71 nM | 0.000132 s⁻¹ | 48700 M⁻¹ s⁻¹ | murine monoclonal antibody 4E12 (antibody, V domains shown, Whole murine mAb from hybridoma; also called mAb 4E12) VH: QVQPQQPGAELVKPGASVKMSCKASGDTFTNSWIGWVTQRPGQGLEWIGDIFPGSGHTNYNEKFKNRATLTVDTSSSTAYMLLSSLTSDDSAVYYCVIENYAWFAYWGQGTLVTVSA VL: DIVMTQSQKFMSSSVGDRVSVTCKASQNVNTNVAWYQQKQGQSPRPLIYSASSRCSGVPDRFTGSGFGTDFTLTISNVQSEDLAEYFCQQYHSFPLTFGAGAKLDLK | binding result (6×His.mVEGF-B10-108 [6]): no binding (tested: 1.25 µg/ml)
